Measured values from patent US20170137467A1 (CHROMOTEK, published 2017).
Residue numbers refer to the chain shown, from its start. Square brackets hold non-standard residues; d marks the D form. GABA = NCCCC(=O)O

How the values were obtained:
Experiment in all cases: positional peptide library pulldown on immobilised Nb, LC-MS of supernatant; signal ratio to control GFP-Nb (1 = not captured, near 0 = captured)
BC2T S8A = target: T1, BC2T S8A
T1 construct: positional scanning library member
T1 peptide: Ac-PDRKAAVAHWQQ-NH2
From the text: (§1) In total, 12 different BC2T libraries displaying all 20 proteinogenic amino acids in one single position of the peptide were used in immunoprecipitation experiments. […] The direct comparison with the GFP-Nb made it possible to determine the quantitative degree of peptide capture without the need of labeled standards. […] The more peptide was captured the more the value approximates 0. It was not possible to discriminate between isoleucine (I) and leucine (L) peptide versions since these peptides are isobaric.
(§2) To investigate the binding specificity of the BC2T and derived mutants peptide libraries for each amino acid position of the sequence […] (SEQ ID NO:4) were synthesized with acetyl and amide groups located at the N-termini or C-termini respectively (Intavis). […] Incubations were performed in 300 μl PBS/0.01% CHAPS for 1 h on a HulaMixer (Life Technologies). Subsequent to a centrifugation step 10 μl supernatant were analyzed in a LC-MS procedure. Peptides were separated using an UltiMate3000 RSLCnano System (Thermo Scientific), composed of a C18 PepMap100μ-Precolumn (300 μm×5 mm; particle size: 5 μm; pore size: 100 Å—Thermo Scientific) and a C18 analytical column (Acclaim Rapid Separation LC (RSLC) Column: 150 mm×5 mm; particle size: 2.2 μm; pore size: 100 Å—Thermo Scientific). A step gradient was applied starting at 8% and ending after 20 min at 30% eluent B (80% acetonitrile, 20% H₂O, 0.1% formic acid).

BC2T Q11H = target: T2, BC2T Q11H
T2 construct: positional scanning library member
T2 peptide: Ac-PDRKAAVSHWHQ-NH2
From the text: as §1, §2

BC2T H9A = target: T3, BC2T H9A
T3 construct: positional scanning library member
T3 peptide: Ac-PDRKAAVSAWQQ-NH2
From the text: as §1, §2

BC2T Q11N = target: T4, BC2T Q11N
T4 construct: positional scanning library member
T4 peptide: Ac-PDRKAAVSHWNQ-NH2
From the text: as §1, §2

BC2T Q12F = target: T5, BC2T Q12F
T5 construct: positional scanning library member
T5 peptide: Ac-PDRKAAVSHWQF-NH2
From the text: as §1, §2

BC2T H9Q = target: T6, BC2T H9Q
T6 construct: positional scanning library member
T6 peptide: Ac-PDRKAAVSQWQQ-NH2
From the text: as §1, §2

BC2T S8G = target: T7, BC2T S8G
T7 construct: positional scanning library member
T7 peptide: Ac-PDRKAAVGHWQQ-NH2
From the text: as §1, §2

BC2T H9(I/L2) = target: T8, BC2T H9(I/L2) (N-terminal acetyl; C-terminal amide)
T8 construct: positional scanning library member; I or L not resolved
From the text: as §1, §2

BC2T Q12(I/L1) = target: T9, BC2T Q12(I/L1) (N-terminal acetyl; C-terminal amide)
T9 construct: positional scanning library member; I or L not resolved
From the text: as §1, §2

BC2T H9T = target: T10, BC2T H9T
T10 construct: positional scanning library member
T10 peptide: Ac-PDRKAAVSTWQQ-NH2
From the text: as §1, §2

BC2T S8P = target: T11, BC2T S8P
T11 construct: positional scanning library member
T11 peptide: Ac-PDRKAAVPHWQQ-NH2
From the text: as §1, §2

BC2T Q11C(Abu) = target: T12, BC2T Q11C(Abu) (SMILES …)
T12 construct: positional scanning library member
T12 peptide: Ac-PDRKAAVSHW[GABA]Q-NH2
From the text: as §1, §2

BC2T H9C(Abu) = target: T13, BC2T H9C(Abu) (SMILES …)
T13 construct: positional scanning library member
T13 peptide: Ac-PDRKAAVS[GABA]WQQ-NH2
From the text: as §1, §2

BC2T Q12N = target: T14, BC2T Q12N
T14 construct: positional scanning library member
T14 peptide: Ac-PDRKAAVSHWQN-NH2
From the text: as §1, §2

BC2T W10T = target: T15, BC2T W10T
T15 construct: positional scanning library member
T15 peptide: Ac-PDRKAAVSHTQQ-NH2
From the text: as §1, §2

BC2T Q12A = target: T16, BC2T Q12A
T16 construct: positional scanning library member
T16 peptide: Ac-PDRKAAVSHWQA-NH2
From the text: as §1, §2

BC2T W10F = target: T17, BC2T W10F
T17 construct: positional scanning library member
T17 peptide: Ac-PDRKAAVSHFQQ-NH2
From the text: as §1, §2

BC2T H9R = target: T18, BC2T H9R
T18 construct: positional scanning library member
T18 peptide: Ac-PDRKAAVSRWQQ-NH2
From the text: as §1, §2

BC2T H9K = target: T19, BC2T H9K
T19 construct: positional scanning library member
T19 peptide: Ac-PDRKAAVSKWQQ-NH2
From the text: as §1, §2

BC2T Q12V = target: T20, BC2T Q12V
T20 construct: positional scanning library member
T20 peptide: Ac-PDRKAAVSHWQV-NH2
From the text: as §1, §2

BC2T W10M = target: T21, BC2T W10M
T21 construct: positional scanning library member
T21 peptide: Ac-PDRKAAVSHMQQ-NH2
From the text: as §1, §2

B1: BC2 nanobody (VHH)
VHH: QVQLVESGGGLVQPGGSLTLSCTASGFTLDHYDIGWFRQAPGKEREGVSCINNSDDDTYYADSVKGRFTIFMDNAKDTVYLQMNSLKPEDTAIYYCAEARGCKRGRYEYDFWGQGTQVTVSS
notes: immobilised on beads in this assay; also called BC2-Nb; BC2 nanotrap (immobilised)
Work on B1 yielded a ratio (BC2T S8A) of 0, a ratio (BC2T Q11H) of 0.1 and a ratio (BC2T H9A) of 0.2. It also gave a ratio (BC2T Q11N) of 0.1, a ratio (BC2T Q12F) of 0.2 and a ratio (BC2T H9Q) of 0.2. The ratio (BC2T S8G) was 0.5, the ratio (BC2T H9(I/L2)) was 0.1 and the ratio (BC2T Q12(I/L1)) was 0.1. It also gave a ratio (BC2T H9T) of 0.2, a ratio (BC2T S8P) of 0.7 and a ratio (BC2T Q11C(Abu)) of 0.1. It also gave a ratio (BC2T H9C(Abu)) of 0.2, a ratio (BC2T Q12N) of 0.1 and a ratio (BC2T W10T) of 1. The ratio (BC2T Q12A) was 0.1, the ratio (BC2T W10F) was 0.9 and the ratio (BC2T H9R) was 0.1. For the same binder, the ratio (BC2T H9K) was 0.2, the ratio (BC2T Q12V) was 0.1 and the ratio (BC2T W10M) was 1.

B2: BC2-NbR106S (VHH)
VHH: B1 VHH with R106S
notes: headlock mutant of BC2-Nb; immobilised on beads in this assay
For B2, the ratio (BC2T S8A) was 0.1, the ratio (BC2T Q11H) was 0.2 and the ratio (BC2T H9A) was 0.5. The ratio (BC2T Q11N) was 0.3, the ratio (BC2T Q12F) was 0.4 and the ratio (BC2T H9Q) was 0.4. The ratio (BC2T S8G) was 0.9, the ratio (BC2T H9(I/L2)) was 0.3 and the ratio (BC2T Q12(I/L1)) was 0.2. For the same binder, the ratio (BC2T H9T) was 0.5, the ratio (BC2T S8P) was 1 and the ratio (BC2T Q11C(Abu)) was 0.3. The ratio (BC2T H9C(Abu)) was 0.5, the ratio (BC2T Q12N) was 0.2 and the ratio (BC2T W10T) was 1. For the same binder, the ratio (BC2T Q12A) was 0.3, the ratio (BC2T W10F) was 1.1 and the ratio (BC2T H9R) was 0.2. For the same binder, the ratio (BC2T H9K) was 0.3, the ratio (BC2T Q12V) was 0.2 and the ratio (BC2T W10M) was 1.1.
